These results are taken from patent US20240343771A1.

The target of assay [1] is IL-12 receptor (human IL-12Rb1 and IL-12Rb2 on IL-12 bioassay cells) (human) (UniProt P42701).
For assay [2] the target is unchanged. This is another data set of the same source.
Assay [3] shares this target. The source holds these as a separate data set.
For assay [4] the target is unchanged. The source holds these as a separate data set.

IL-12 receptor (human IL-12Rb1 and IL-12Rb2 on IL-12 bioassay cells) (human), sequence (Q99665 24-862, chain 2 of 2, other chains not shown): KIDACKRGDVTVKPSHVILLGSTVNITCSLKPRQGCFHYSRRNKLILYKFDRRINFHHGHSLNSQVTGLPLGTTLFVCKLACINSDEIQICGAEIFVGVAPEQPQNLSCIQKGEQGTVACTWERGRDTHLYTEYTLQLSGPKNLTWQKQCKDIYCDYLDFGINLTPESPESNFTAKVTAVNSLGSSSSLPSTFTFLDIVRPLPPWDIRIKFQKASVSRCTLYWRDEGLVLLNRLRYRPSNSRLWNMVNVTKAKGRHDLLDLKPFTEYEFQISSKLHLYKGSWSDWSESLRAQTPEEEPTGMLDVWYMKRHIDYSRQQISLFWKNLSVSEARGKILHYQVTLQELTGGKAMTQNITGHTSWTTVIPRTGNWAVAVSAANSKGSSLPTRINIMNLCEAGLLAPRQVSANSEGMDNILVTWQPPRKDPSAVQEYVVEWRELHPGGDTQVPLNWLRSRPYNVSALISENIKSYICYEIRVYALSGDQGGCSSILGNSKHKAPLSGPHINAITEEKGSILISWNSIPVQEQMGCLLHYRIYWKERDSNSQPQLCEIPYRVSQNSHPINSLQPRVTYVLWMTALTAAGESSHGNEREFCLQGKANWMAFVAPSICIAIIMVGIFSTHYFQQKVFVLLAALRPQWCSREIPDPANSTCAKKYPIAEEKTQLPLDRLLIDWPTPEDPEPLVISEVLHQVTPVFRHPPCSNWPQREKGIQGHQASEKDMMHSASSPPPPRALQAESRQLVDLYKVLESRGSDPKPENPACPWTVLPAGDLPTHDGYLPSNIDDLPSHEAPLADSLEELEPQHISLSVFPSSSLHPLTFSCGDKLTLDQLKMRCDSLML
hIL12 + MTSP1, sequence (P29459 23-219): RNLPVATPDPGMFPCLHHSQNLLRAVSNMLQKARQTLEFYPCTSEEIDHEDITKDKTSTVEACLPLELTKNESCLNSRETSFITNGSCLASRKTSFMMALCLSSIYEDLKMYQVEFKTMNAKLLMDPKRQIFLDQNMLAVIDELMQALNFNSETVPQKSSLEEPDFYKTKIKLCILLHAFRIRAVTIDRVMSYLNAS
hIL12 + MTSP1, sequence (P29460 23-328): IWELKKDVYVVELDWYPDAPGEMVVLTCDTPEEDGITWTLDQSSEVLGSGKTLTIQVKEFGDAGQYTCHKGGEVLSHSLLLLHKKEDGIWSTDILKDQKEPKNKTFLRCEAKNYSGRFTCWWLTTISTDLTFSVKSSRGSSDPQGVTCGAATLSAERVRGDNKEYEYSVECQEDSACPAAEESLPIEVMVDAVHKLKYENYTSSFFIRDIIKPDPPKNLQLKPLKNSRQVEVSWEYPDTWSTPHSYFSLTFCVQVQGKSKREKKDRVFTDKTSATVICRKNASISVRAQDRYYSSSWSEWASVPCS

“hIL12 + MTSP1 (from UniProt P29459;P29460) (ligand)”: the EC50 (read off the curve) (luciferase activity, AU; the assay is not described for this figure) in assay [1] is 0.3 nM.

In assay [2], hIL12_His tag (ligand) displayed an EC50 (read off the curve) (luciferase reporter in IL-12 bioassay cells expressing human IL-12Rb1, IL-12Rb2 and STAT4) of 0.2 nM. Also, the EC50 (read off the curve) (luciferase reporter in IL-12 bioassay cells expressing human IL-12Rb1, IL-12Rb2 and STAT4) [all three graphs] in assay [3] worked out at 0.2 nM. In assay [4], this substance had an EC50 (read off the curve) (luciferase reporter in IL-12 bioassay cells expressing human IL-12Rb1, IL-12Rb2 and STAT4) [left graph] of 0.1 nM.

The substance hIL12_His tag + MTSP1 (ligand) had an EC50 (read off the curve) (luciferase reporter in IL-12 bioassay cells expressing human IL-12Rb1, IL-12Rb2 and STAT4) in assay [2] of 0.2 nM. In assay [3], the EC50 (read off the curve) (luciferase reporter in IL-12 bioassay cells expressing human IL-12Rb1, IL-12Rb2 and STAT4) [all three graphs] worked out at 0.2 nM.
